The target in the test is immune complexes (Dylight 650-labeled BSA + polyclonal rabbit anti-BSA IgG + human serum complement) (bovine) (UniProt P02769). Put plainly: cell-based or functional assay.
Sequence of UniProt P02769 (P02769 25-607, one chain of several): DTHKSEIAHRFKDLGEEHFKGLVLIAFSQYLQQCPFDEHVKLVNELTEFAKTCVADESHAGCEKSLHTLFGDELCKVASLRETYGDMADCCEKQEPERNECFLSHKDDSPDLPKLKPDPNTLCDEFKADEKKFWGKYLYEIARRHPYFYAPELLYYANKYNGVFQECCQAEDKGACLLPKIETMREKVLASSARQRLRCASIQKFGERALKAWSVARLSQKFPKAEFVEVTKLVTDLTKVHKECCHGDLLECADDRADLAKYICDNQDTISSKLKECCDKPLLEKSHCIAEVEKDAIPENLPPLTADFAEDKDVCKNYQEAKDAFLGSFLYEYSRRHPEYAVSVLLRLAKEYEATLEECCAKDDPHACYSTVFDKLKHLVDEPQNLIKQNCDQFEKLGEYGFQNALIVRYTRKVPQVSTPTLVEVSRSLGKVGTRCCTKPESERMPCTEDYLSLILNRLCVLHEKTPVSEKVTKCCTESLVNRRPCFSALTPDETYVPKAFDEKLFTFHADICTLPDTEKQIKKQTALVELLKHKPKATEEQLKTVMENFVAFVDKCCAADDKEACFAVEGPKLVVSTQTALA

For “complement receptor 1 (CR1) exogenously over-expressed on the surface of cultured erythroid cells (from UniProt P17927 42-2039)”, the uptake of fluorescent immune complexes by activated U937 macrophages in co-culture (flow cytometry) was determined as 2 fold.

Source of the values: patent US20190376034A1.
